{"source": "paper doi:10.1101/2025.02.27.640524", "about": "(bioRxiv, 2025)", "binders": {"B1": {"name": "VosA-HA (A. nidulans VosA with HA tag) (natural protein)", "chain": "MSAANYPDPSLPRPSTSDDFELIVRQNPNRARVAGGKEKERKPVDPPPIVQIRVREEGTYLAQHYLQSPYFFMSCSLYDAQEDAPASIPPSTALTGTLVSSLHRLKDVDNTDGGFFVWGDLSIKVEGDFRLKFSLFEMRKTDVVFLKSIVSERFTVSPPKSFPGMAESTFLSRSFADQGVKLRIRKEPRTLIKRTAPRPEEYPQAAIPRSPSDRTAMQIPGSSYPAPPYQPTSRDYSYYAPVKRQRTSVDYGARGMYDADGRMRQMETYPQTATLYGQPGGYPTPMMGYPSGHGGVPDYAMSYGLPPSAQVPQMQDPAAQSRSSQQATMQSLGMVNPPGTPTPDSARAMMQQAYPRPQYSASTAVLPPLQQSRNYPQGTNGATRGYYEQSPQATPILPSQPLGTSEAERYGVPPGHTGYDHTGSANGTPR"}}, "target": "T1, VelB-GFP (full length A. nidulans Velvet-like B fused to GFP) (Aspergillus nidulans, UniProt C8VTS4 1-369)", "T1 sequence": "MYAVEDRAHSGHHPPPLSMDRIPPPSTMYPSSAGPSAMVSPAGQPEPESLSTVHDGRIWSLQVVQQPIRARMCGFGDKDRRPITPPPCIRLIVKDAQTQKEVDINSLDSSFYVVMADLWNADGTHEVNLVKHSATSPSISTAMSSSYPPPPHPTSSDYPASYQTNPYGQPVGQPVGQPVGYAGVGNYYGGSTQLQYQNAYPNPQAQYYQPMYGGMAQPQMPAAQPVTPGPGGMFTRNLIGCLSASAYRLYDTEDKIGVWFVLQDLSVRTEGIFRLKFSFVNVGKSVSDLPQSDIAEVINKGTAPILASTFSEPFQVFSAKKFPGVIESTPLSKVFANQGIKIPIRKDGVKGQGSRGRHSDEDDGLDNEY", "test": "co-IP", "data": [{"binder": "B1", "values": [{"measurement": "fold abundance of co-precipitated VosA against the VelB^ΔIDD-GFP strain", "value": 10, "unit": "fold"}]}]}
